In experiment [1] the target is T1, CD73 on the surface of human cells (human, UniProt P21589 27-549).
T1 construct: whole, on cells; The cell line of each value is named under assay or readout; also called CD73 on the surface of tumor cells; CD73 enzyme on the surface of MDA-MB-231 cells
T1 sequence (looked up): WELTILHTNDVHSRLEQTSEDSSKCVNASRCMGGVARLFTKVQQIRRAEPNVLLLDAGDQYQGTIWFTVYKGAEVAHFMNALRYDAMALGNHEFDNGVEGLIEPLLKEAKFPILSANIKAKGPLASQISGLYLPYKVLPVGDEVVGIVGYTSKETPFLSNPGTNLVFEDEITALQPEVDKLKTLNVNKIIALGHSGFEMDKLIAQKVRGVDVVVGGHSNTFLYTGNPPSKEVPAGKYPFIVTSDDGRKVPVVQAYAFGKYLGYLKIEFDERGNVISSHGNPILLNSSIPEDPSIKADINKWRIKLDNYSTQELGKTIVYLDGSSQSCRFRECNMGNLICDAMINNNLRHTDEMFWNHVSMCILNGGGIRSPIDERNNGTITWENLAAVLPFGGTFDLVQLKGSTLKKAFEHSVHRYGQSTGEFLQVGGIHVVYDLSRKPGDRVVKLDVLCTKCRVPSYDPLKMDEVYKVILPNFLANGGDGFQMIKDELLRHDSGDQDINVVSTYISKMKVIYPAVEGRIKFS
Kind of experiment: flow cytometry on SW1573 cells. As for the experimental part:
100 μL of the test antibodies diluted from 10 μg/mL to 0.016 μg/mL in a 5-fold gradient were used as the primary antibodies, and were mixed with 1×10⁵ tumor cells suspended in 100 μL RPMI-1640 serum-free medium to make a final concentration of 5 μg/mL diluted to 0.008 μg/mL, and then incubated at 4° C. for 1 h. The cells were washed twice with PBS to remove unbound primary antibodies, and then the target cells were incubated with 200 μLPE-labeled secondary antibody at 2 μg/mL at 4° C. for 30 min. The cells were washed twice with PBS to remove unbound secondary antibodies, and finally the cells were resuspended in 200 μL PBS. The binding affinity of the test antibodies to CD73 on the surface of the corresponding cells was measured by flow cytometry.
In general terms: A flow cytometer gives signals particle by particle.

In experiment [2] the target is T2, extracellular domain of human CD73 protein, C-terminus polyhistidine-tagged (human, UniProt P21589 27-547).
T2 construct: also the immunogen; also called CD73-ECD; human CD73-ECD
T2 sequence: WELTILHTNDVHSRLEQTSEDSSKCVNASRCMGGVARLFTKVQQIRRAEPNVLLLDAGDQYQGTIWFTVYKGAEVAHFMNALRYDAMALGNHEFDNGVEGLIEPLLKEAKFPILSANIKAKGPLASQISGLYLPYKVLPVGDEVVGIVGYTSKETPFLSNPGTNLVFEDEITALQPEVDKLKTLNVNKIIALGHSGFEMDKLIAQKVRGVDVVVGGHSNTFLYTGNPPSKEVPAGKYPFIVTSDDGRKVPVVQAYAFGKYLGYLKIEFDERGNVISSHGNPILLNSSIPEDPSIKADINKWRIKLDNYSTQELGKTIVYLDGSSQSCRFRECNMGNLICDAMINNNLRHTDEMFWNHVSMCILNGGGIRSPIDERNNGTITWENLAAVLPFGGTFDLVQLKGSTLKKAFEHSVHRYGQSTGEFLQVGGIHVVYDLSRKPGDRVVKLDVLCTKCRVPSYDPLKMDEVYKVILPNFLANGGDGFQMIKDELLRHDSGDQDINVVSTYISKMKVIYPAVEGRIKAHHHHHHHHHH
Briefly: ELISA, coated CD73-ECD, method of Example 3. As for the experimental part: (§1) The CD73 protein extracellular region (CD73-ECD) was diluted to 1 μg/mL using the coating solution, and an ELISA plate was coated at 100 μL/well at 4° C. overnight. Excess antigens were washed away, and the plate was blocked with 1% BSA at room temperature for 2 hours. Then, 5-fold gradient dilutions of each monoclonal antibody were added at 100 μL/well and incubated at room temperature for 1 hour. Unbound antibodies were washed away, and an appropriate concentration of Staphylococcal protein A labeled with horseradish peroxidase was added at 100 μL/well and incubated at room temperature for 0.5 hours. Unbound secondary antibodies were washed away, and TMB color development solution was added to react for about 15 minutes. 1M HCL was added at 50 µL/well to terminate the color development reaction, and then the absorbance was measured at 450 nm and the data was analyzed.
(§2) Based on the above mutants, 5-E11ASCS was designed and prepared, and the CD73 antigen ELISA binding affinity test was performed according to the method of Example 3.
A general note: In an ELISA, binding on a coated surface is turned into a signal by an enzyme label.

Experiment [3] has as its target T2, extracellular domain of human CD73 …. Kind of experiment: ELISA on coated human CD73-ECD (the text rounds this value to 0.018 µg/mL). As to the method:
as §1, §2

B1: 5-E11 derived antibody 5-E11ASCS (VHH)
VHH: ALQLVESGGGLVQPGGSLRLSCEVSGFTLDYYNIGWFRQAPGKEREGVSSSSASGGSTYYADSVKGRFTISRDNAKNTVYLQMNSLKPEDTGVYYCAAYRGWHPSLDARVYDYWGQGTEVTVSS
By EC50 is commonly meant the concentration at which the effect is half-maximal. A higher EC50 goes with a less potent agent. In the case of B1, the results for the EC50 in experiment [1], in experiment [2] and in experiment [3] were 0.015 µg/mL, 0.018 µg/mL and 0.0179 µg/mL, respectively.

The values above are taken from patent publication US20250382376A1 (FUDAN UNIVERSITY, published 2025).
